Patent US7893023B2, “Prodrugs activated by plasmin and their use in cancer chemotherapy” (priority 2000, dated 2011)
Read-outs that look alike come from different tables or passages of the source. Square brackets hold non-standard residues; d marks the D form. Peptide text beside a SMILES is read from it. * marks the point of attachment. ξ: configuration not given here. Doxorubicin(3'-N) = COc1cccc2c1C(=O)c1c(O)c3c(c(O)c1C2=O)C[C@@](O)(C(=O)CO)C[C@@H]3O[C@H]1C[C@H](N*)[C@H](O)[C@H](C)O1; X1 = COc1cccc2c1C(=O)c1c(O)c3c(c(O)c1C2=O)C[C@@](O)(C(C)=O)CC3OC1C[C@H](N*)[C@H](C)[C@H](C)O1; AMC = Cc1cc(=O)oc2cc(N*)ccc12; ξL = CC(C)CC(N)C(=O)O; ξK = NCCCCC(N)C(=O)O; ξA = CC(N)C(=O)O

Assays:
human plasmin = target: T1, human plasmin (Homo sapiens, UniProt P00747); assay: Hydrolysis by human plasmin; format: biochemical; details: for rate of in vitro hydrolysis by human plasmin: 0.17 mM, 0.1 units human plasmin, 25° C., 50 mM pH 8.0 TES buffer
T1 construct: purchased Sigma
T1 sequence (P00747 581-810 limits assumed): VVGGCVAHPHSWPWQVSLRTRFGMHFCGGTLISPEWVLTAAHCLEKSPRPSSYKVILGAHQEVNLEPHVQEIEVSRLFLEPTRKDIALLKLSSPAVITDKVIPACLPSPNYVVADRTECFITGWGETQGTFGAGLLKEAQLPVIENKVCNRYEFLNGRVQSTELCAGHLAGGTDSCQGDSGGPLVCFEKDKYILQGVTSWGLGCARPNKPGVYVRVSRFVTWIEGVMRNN
T1 sequence (P00747 97-580 partner limits assumed): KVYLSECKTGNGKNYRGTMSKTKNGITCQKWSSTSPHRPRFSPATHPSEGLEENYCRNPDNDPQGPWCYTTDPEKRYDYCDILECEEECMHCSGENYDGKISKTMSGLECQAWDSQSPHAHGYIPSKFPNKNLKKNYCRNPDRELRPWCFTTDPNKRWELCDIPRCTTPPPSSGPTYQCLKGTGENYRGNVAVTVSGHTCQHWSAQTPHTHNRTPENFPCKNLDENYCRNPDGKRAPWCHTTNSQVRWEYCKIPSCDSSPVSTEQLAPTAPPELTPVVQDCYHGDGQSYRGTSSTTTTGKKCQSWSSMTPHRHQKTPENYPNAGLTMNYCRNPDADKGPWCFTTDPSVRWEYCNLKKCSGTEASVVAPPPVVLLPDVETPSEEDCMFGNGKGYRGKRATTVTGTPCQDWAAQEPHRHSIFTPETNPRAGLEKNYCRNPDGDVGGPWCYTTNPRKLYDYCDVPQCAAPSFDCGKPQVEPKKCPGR
Description: In an eppendorf tube, 50 μl of the substrate at a concentration of 50 μM in DMF were mixed with 900 μl of TES buffer and 50 μl of an enzyme-containing solution. The mixture was incubated for 1 hour at 25° C. Fluorescence was determined (λexc=350 nm, λem=496 nm; fluorometer standardized with a 10 nM solution of 7-amido-4-methylcoumarin in PBS and the whole mixture excluding the enzyme). A dosage curve was done in parallel with known plasmin concentrations (at least five ½ dilutions). Plasmin activity was determined and expressed in IU/ml; μmole substrate transformed/min×ml.
Compounds I, DNR and II, DNR (0.17 mM), as well as D-Ala-Leu-Lys-7-amido-4-methylcoumarin (0.17 mM) were incubated at 25° C. in the presence of 0.1 units of human plasmin in a 50 mM, pH 8.0 TES buffer. For Compounds I, DNR and II, DNR, HPLC samples were prepared and analyzed by HPLC (See General Methods, Section J). In case of D-Ala-Leu-Lys-7-amido-4-methylcoumarin, after 1 hour of incubation, the fluorescence of the resulting solution was determined at λexc=350 nm, λem=496 nm (See General Methods, Section N.).
After 15, 45 and 60 min of incubation, triplicate aliquots were removed and the drugs and metabolites extracted prior to HPLC analysis (See General Methods, Section J.).

[1] = tested on: medium conditioned by cultured B16-B16 cells; assay: Hydrolysis in medium conditioned by B16-B16 cells; format: in vitro ADME, murine; details: 17.24 μM, medium 20 times concentrated, 2 hours, 37° C.
Description: Compounds I, DNR and II, DNR (17.24 μM) were incubated in a medium freshly conditioned by the cultured B16-B16 cells (20 times concentrated) for 2 hours at 37° C. After that time, triplicate aliquots were removed and the drugs and metabolites extracted prior to HPLC analysis (See General Methods, Section J.).

[2] = tested on: MCF-7/6 human mammary carcinoma cells; assay: In vitro accumulation by cultured MCF-7/6 tumor cells; format: cell-based; details: 0.02 mM, 37° C., after 24 hours
Description: Compound I, DNR was incubated in vitro at 37° C. in the presence of MCF-7/6 human mammary carcinoma cells and the intracellular accumulation of the compound or its potential metabolites were analyzed by HPLC and fluorimetry, after extraction of the drugs from the cells.
Compound I, DNR was dissolved in distilled water at 17.24 μmole/ml and then diluted to obtain 0.02 mM in DMEM-F12 culture medium supplemented with 10% fetal calf serum (glutamax-I). Four ml of medium was poured in 25 cm^2 flasks (ref 3014. FALCON), and the cells were incubated for 30 minutes, 1, 3, 6 and 24 hours at 37° C. Then the cells were washed three times with PBS, and the cells were scraped from the flasks, and sonicated for 30 seconds at 100 Watts in a ice bath. Aliquots of 500 μl from each sample were then extracted with 1.8 ml of a chloroform:methanol mixture (4:1 by volume) to which 0.1 ml of 0.2 M borate buffer at pH 9.2, containing DOX at […] as internal standard, were added. After stirring, the organic layer was dried and resuspended in 400 μl of distilled water, sonicated 5 minutes at 100 Watts in a ice-bath and filtered through a 0.22 μm filter (Waters-Millipore, MILLEX-GV) and then analyzed by HPLC.
On a aliquot of 100 μl, the protein content of the cell homogenate was determined.

B16-B16 melanoma cells = assay: Uptake by B16-B16 cells; format: cell-based, murine
Description: This experiment was conducted to evaluate whether the prodrugs were able to enter cultured cells in their non-hydrolyzed forms. In addition, it was desired to estimate the capacity of the prodrugs to induce detectable levels of products of their enzymatic hydrolysis (DNR and its amino acid derivatives) inside B16-B16 cells. N-Leu-Leu-DNR was chosen as a reference drug since it is the product that is directly liberated by plasmin from Compound II, DNR.
At determined time points (1, 3, 5 and 24 hours), the cells were washed, harvested and lysed by ultrasonication. The concentration of the drugs and metabolites in the cell lysates were determined after extraction and HPLC analysis (See General Methods, Section J.). The amounts of anthracycline derivatives found per mg of protein were then compared.

[3] = Acute toxicity in OF-1 mice, i.p.; format: in vivo; details: male, mouse, in vivo, ip; OF-1 mice, five i.p. injections days 0-4, calculated on day 28
Description: (§1) The percentage of surviving mice and the mean body weight of each dose group was plotted as a function of time. Cumulative mortality on day 14 and day 28 was also plotted as a function of the dose level for the purpose of IC50 determination. IC50 values were determined from sigmoidal regressions performed with the GraphPad Prism 3.00 software.
(§2) Male OF-1 mice (5 weeks old upon delivery), were kept for one week under laboratory conditions before the experiment. […] The animals were divided in six groups (5 mice per group) for toxicity studies and marked individually.
(§3) Mortality and clinical signs were recorded up to 4 hours post-treatment on dosing days, and daily thereafter. Individual body weights were recorded daily until day 14 and at least twice a week thereafter. The percentage of surviving mice and the mean body weight of each dose group were plotted as a function of time. Cumulative mortality on day 14 and day 28 was also plotted as a function of the dose level for the purpose of LD50 determination. LD50 values were determined by regression analysis.

OF-1 mice = assay: Acute toxicity in OF-1 mice, i.p.; format: in vivo
Description: as §1, §2, §3

[4] = tested on: LS174T colon tumor xenografts; assay: Chemotherapeutic activity in the LS174T human colon tumor xenograft model; format: in vivo, mice
Source text: Animals were kept under pathogen-free conditions with food and water supplied ad libitum, and kept for about one week before implantation of the tumors. Fragments (˜2 mm) of tumors grown in nude mice were implanted subcutaneously in both flanks of the mice. Tumors were generally allowed to grow to attain a diameter of 5-6 mm each (approximately two weeks).
The mice weighed 20.0-25.0 g at the beginning of the study. They were selected and assigned to groups in order to have equally distributed tumor volumes in the different groups. In each group, mice were labeled individually. Treatments were assigned randomly to those groups.
All dosing solutions were prepared the day of injection by dissolution in water ( 1/10 of the expected final volume) and further dilution with 0.9% (w/v) NaCl. The concentration of these solutions was checked (A475 nm determination) after sterilization by filtration (0.22 μm) and adjusted to the final required value using sterile 0.9% (w/v) NaCl).
Treatments were administered by the i.p. route. The mice received a constant volume (10 μl/g) of either saline (control group) or drug. Mortality and clinical signs were recorded up to 4 hours post-treatment on dosing days, and daily thereafter. Their behavior was equally noted. Individual body weights were generally recorded daily until day 14 and at least twice a week thereafter.
Tumor growth was monitored by two-dimensional measurements using calipers and a precision of 0.5 mm. Tumor volumes were calculated according to the following formula: Vt=[length×(width)^2]/2
Median relative tumor volumes (RTV) were calculated as tumor volumes determined at individual days divided by tumor volumes on day 0. For treated groups, growth inhibition was estimated as the percentage ratio of median RTV of treated (T) mice versus controls (C) on each day of tumor treatment. T/C(%)=[Median RTV(treated group)/Median RTV(control group)]×100
The minimal T/C value (%) for each treatment was used as a parameter for maximum efficacy. Duration of growth inhibition was assessed by considering growth delays (T-C) for one (200%) and two (400%) doublings of the median RTV).
To determine the statistical significance of any difference in median RTV between two groups, the Mann-Whitney test was used. The test was conducted at a p level of 0.05 (two tailed) using the GraphPad Prism 3.00 software.
Female Swiss nude mice were 5 weeks old upon delivery (See General Methods, Section O). They were kept under pathogen-free conditions with food and water supplied ad libitum, and kept for about one week before implantation of the tumors. Fragments (˜2 mm) of LS174T tumors grown in nude mice were implanted subcutaneously in both flanks of the mice used in the study. Tumors were left to grow for 17 days. At that time, the mice weighed about 20.5-26.5 g.
Mice were then selected and assigned to groups in order to have equally distributed tumor volumes in different groups (5-6 mice, 9-10 tumors/group). The dose levels of Compound II, DOX used in the study, were selected on the basis of a lethality study previously conducted on OF-1 normal mice. The dose of DOX was based on previous chemotherapy experiments performed in nude mice with the same dosing schedule.
Treatments were administered by the i.p. route on days 0, 1, 2, 3 and 4, the mice receiving a constant volume (10 μl/g) of either saline or the different dosing solutions. DOX was used at 3.8 μmol/kg, Compound II, DOX was used at 25.9 μmol/kg and 34.5 μmol/kg. Clinical signs (recorded 0.5, 1, 2 and 4 hours after dosing and daily between dosing days) and body weights (recorded on each day of tumor measurement) were used to assess treatment toxicity, tumor growth was monitored on days 7, 12, 15, 19, 22, 26, 29, 33 and 36 by two-dimensional measurements using calipers and a precision of 0.5 mm.

[5] = DOX 3.8 μmol/kg, Compound II, DOX lower dosage 25.9 μmol/kg, i.p. days 0-4

Description for B16-B16 murine melanoma: Male C57-B16 black mice were 5 weeks old upon delivery. The body weight of the animals was approximately 20 g at the beginning of the test (See General Methods, Section O).
The animals were divided in eight groups (5 mice per group). Confluent murine melanoma B16-B16 cells (See General Methods, Section E.) were washed twice with PBS and EDTA (See General Methods, Section F.) twice and detached with trypsin (2 min incubation at 37° C.), that was thereafter neutralized by DMEM-F12 (containing 10% of calf serum). The cells were centrifuged for 5 min at 300 g. The pellet was resuspended twice in the DMEM-F12 without serum and centrifuged 5 min at 300 g.
The number of cells per ml of DMEM-F12 was then estimated (Brucker chamber) and the dilution of 2.5×10^5 cells/ml prepared. Each animal received 200 μl of this suspension (5.0×10^4 cells) in its tail vein. The day of injection was considered day 0 of the study. […] Animals were weighed on days 0, 1, 3, 6, 8 and 14. Their behavior and eventual clinical signs were also noted. All animals were sacrificed on day 14 and autopsied.
The lung lobes were fixed in a Bouin's solution (picric acid: formaldehyde, 40%: acetic acid, 15:5:1, v/v). Every lobe immersed in the fixing solution in a Petri flask was uniformly lighted against an opaque black background. Pictures of the front and back side of every lobe were taken with the help of a light microscope, scanned and digitized. The relative surface occupied by B116-B16 colonies was then estimated with the Scion Image Program.
The individual mean values were analyzed with the Scheffe's F-test to evaluate the statistical significance of differences observed between the groups.

## COc1cccc2c1C(=O)c1c(O)c3c(c(O)c1C2=O)C[C@@](O)(C(C)=O)CC3OC1C[C@H](NC(=O)C(CC(C)C)NC(=O)C(CCCCN)NC(=O)C(CC(C)C)NC(=O)C(C)N)[C@H](C)[C@H](C)O1 (stereo partly drawn) [Compound I, DNR, D-Ala-Leu-Lys-Leu-DNR]
Human plasmin
  rate of in vitro hydrolysis by human plasmin: approximately 2.75 nmol/min/unit
[1]
  hydrolysis in medium conditioned by B16-B16 cells: Negative results
[2]
  accumulation by cultured MCF-7/6 cells: approximately 0.1 μg/mg of cell proteins
B16-B16 melanoma cells
  intracellular level of metabolite DNR: 0.015±0.002 mmol/mg cell protein

## COc1cccc2c1C(=O)c1c(O)c3c(c(O)c1C2=O)C[C@@](O)(C(C)=O)CC3OC1C[C@H](NC(=O)C(CC(C)C)NC(=O)C(CC(C)C)NC(=O)C(CCCCN)NC(=O)C(CC(C)C)NC(=O)C(C)N)[C@H](C)[C@H](C)O1 (stereo partly drawn) [Compound II, DNR, D-Ala-Leu-Lys-Leu-Leu-DNR] (H-[ξA][ξL][ξK][ξL][ξL]-X1)
Human plasmin
  rate of in vitro hydrolysis by human plasmin: 27.90 nmol/min/unit
Human plasmin; same conditions
  hydrolysis by plasmin, times more rapid than Compound I, DNR: at least 10 times
[1]
  hydrolysis in medium conditioned by B16-B16 cells: Negative results

## COc1cccc2c1C(=O)c1c(O)c3c(c(O)c1C2=O)C[C@@](O)(C(=O)CO)C[C@@H]3O[C@H]1C[C@H](NC(=O)[C@H](CC(C)C)NC(=O)[C@H](CC(C)C)NC(=O)[C@H](CCCCN)NC(=O)[C@H](CC(C)C)NC(=O)[C@@H](C)N)[C@H](O)[C@H](C)O1 [Compound II, DOX, D-Ala-Leu-Lys-Leu-Leu-DOX] (H-[dA]LKLL-{Doxorubicin(3'-N)})
[3]
  LD50 at 28 day: 34.5 µmol/kg
OF-1 mice; OF-1 mice, 17.24-60.34 μmol/kg i.p. days 0-4
  survival: All animals survived to day 7
OF-1 mice; OF-1 mice, i.p.
  clinical signs of toxicity: piloerection, tremor, motor disturbances, stupor and finally, paralysis of the hind legs
OF-1 mice; doses 34.48 (after second week), 43.1 and 60.34 μmol/kg (after first week)
  loss of mean body weight compared to initial body weight (critical threshold attained): ≥ 20%
OF-1 mice; same conditions
  LD50 fold higher than that of DOX: 8.4 fold
[4]; 34.5 μmol/kg i.p. days 0-4, deaths on days 18, 34 and 35
  mice that died before the end of the study: three
[4]; 34.5 μmol/kg, day 26
  maximum loss of mean body weight: 14%
[4]; [5]
  treatment-related mortality: No treatment-related mortality
  weight loss: no significant weight loss
B16-B16 murine melanoma; 34.5 μmol/kg
  body weight gained from day 6 to day 14: 4.9%
B16-B16 murine melanoma; 34.5 μmol/kg, day 14
  mean body weight, % of initial: 104.5%
B16-B16 murine melanoma; 34.5 and 69.0 μmol/kg
  clinical signs of toxicity: No clinical signs of toxicity were observed

## Cc1cc(=O)oc2cc(NC(=O)[C@H](CCCCN)NC(=O)[C@H](CC(C)C)NC(=O)[C@@H](C)N)ccc12 [D-Ala-Leu-Lys-7-amido-4-methylcoumarin, reference compound] (H-[dA]-Leu-Lys-{AMC}; N-terminus assumed)
Human plasmin
  rate of in vitro hydrolysis by human plasmin: 20.40 nmol/min/unit
[1]
  hydrolysis in medium conditioned by B16-B16 cells: Negative results

## N-Leu-Leu-DNR
B16-B16 melanoma cells; B16-B16 cells, 3 hours
  intracellular level of metabolite DNR: 0.67±0.12 nmol/mg cell protein
  intracellular level of metabolite L-Leu-DNR: 81.22±6.66 nmol/mg cell protein
B16-B16 melanoma cells; B16-B16 cells, 3 hours of incubation
  intracellular level of the unchanged compound: 7.74±0.75 nmol/mg cell protein
B16-B16 melanoma cells; B16-B16 cells, 24 hours
  intracellular level of metabolite L-Leu-DNR: 98.57±16.76 nmol/mg cell protein
  intracellular level of the unchanged compound: 1.04±0.10 mmol/mg cell protein
B16-B16 melanoma cells; B16-B16 cells, 24 hours (end of incubation)
  intracellular level of metabolite DNR: 1.60±0.77 nmol/mg cell protein
